According to paper PMC10720262 (2023):
Where a chain is given by its changes, count along the chain named.

B1: CL-437762 (antibody, V domains shown)
VH: QVQLVESGGGVVQPGRSLRLSCAASGFTFSNYGMYWVRQAPGKGLEWVAVIWYDGSNKYYADSVKGRFTISRDNSKNTLYLQMNSLRAEDTAFYYCARPQYSGSGSYFDYWGQGTLVTVSS
VL: not shown
modifications: peptides N-terminally acetylated and C-terminally amidated
B2: CL-444906 (antibody, V domains shown)
VH: QVQLVESGGGVVQPGRSLRLSCTASGFTFSTYGMHWVRQAPGKGLEWVAIIWYDGSNKFYADSVKGRFTISRDNSKDTLYLQMNSLRAEDTAIYYCARAWDKVDDKYGMDVWGQGTTVTVSS
VL: not shown
modifications: peptides N-terminally acetylated and C-terminally amidated
B3: CL-509940 (antibody, V domains shown)
VH: QVQLVESGGGVVQPGRSLRLSCAASGFTFSTYGMHWVRQAPGKGLEWVAVIWYDGSIKFYADSVKGRFTISRDDSKNTLYLQMNSLRAEDTAVYYCARDGGYSDSGRFGWFDPWGQGNLVTVSS
VL: EIVMTQSPVTLSVSPGERVTLSCRASQSVSSNLAWYQQKPGQAPRLLIYGASNRATGIPDRFSGSGSGTEFSLTVTSLQSEDFAVYYCQQYNQWRTFGQGTKVEIR
modifications: peptides N-terminally acetylated and C-terminally amidated
B4: CL-510484 (antibody, V domains shown)
VH: QVQLVESGGGVVQPGRSLRLSCAASGFTFSNYGMNWVRQAPGKGLEWMAVIWYDGSNKYYGDSVKGRFTISRDNSKNTLYLQMISLRAEDTAVYFCAKSGEFYGSGSHFDYWGQGTLVTVSS
VL: not shown
modifications: peptides N-terminally acetylated and C-terminally amidated
B5: CL-531383 (antibody, V domains shown)
VH: QVQLVESGGGVVQPGRSLRLSCAASGFTFSSFGMHWVRQTPVKGLEWVALIWYDGSHKFYADSVRGRFIISRDNSKNTLFLQMNSLRAEDTAIYYCAKVINYGSGNYYNNYKYTMDVWGQGTTVTVSS
VL: DIQMTQSPSTLSASVGDRVTITCRASQSISSWLAWYQQKPGKAPKVLIYKASSLESGVPSRFSGSGSGTEFTLTISSLQPDDFATYYCQQYNTYWTFGQGTKVEIK
modifications: peptides N-terminally acetylated and C-terminally amidated
B6: CL-515284 (antibody, V domains shown)
VH: QVQLVGSGGGVVQSGRSLRLSCAASGFTFSNFGMHWVRQTPDKGLEWLAIIWYDGSHKFYVDSVKGRFTISRDNSMNTLFLQMNSLRAEDTGVYYCVRSWNYADSKYGMDVWGQGTTVTVSS
VL: B5 VL with K45N, V46L, N92Y, T93N
modifications: peptides N-terminally acetylated and C-terminally amidated
B7: CL-445827 (antibody, V domains shown)
VH: QVQLVASGGGVVQPGRSLRLSCVASGFTFSFFGMHWVRQTPGRGLEWVAIIWYDGGHKFYADSVKGRFTISRDNSKDTLYLQMNSLRAEDTAVYYCARAEDNMARGNIDYSKYGMDVWGQGTTVTVSS
VL: B5 VL with A13V, V15I, S31T, V46L, S53N, E70D, S77G, N92F, T93S
modifications: peptides N-terminally acetylated and C-terminally amidated
B8: CL-513780 (antibody, V domains shown)
VH: QVQLVESGGGVVQPGRSLRLSCTASGFIFSNYGMYWVRQAPGKGLDWVALIWYDGSNKYYVGSVKGRFTISRDNSKNTLYLQMNSLRAEDTAVYYCARAGKYSGSGSYLDSWGQGTLVTVSS
VL: B5 VL with Q6P, T10I, S28N, V46L, Y87F, N92Y, T93S
modifications: peptides N-terminally acetylated and C-terminally amidated
B9: CL-510416 (antibody, V domains shown)
VH: QVQLVESGGGVVQPGRSLRLSCEASGFTFSNYGMHWVRQGPGKGLEWVALMWYDGSNKYYSDSVKGRFTISRDNSKSTLYLQMNSLRAEDTAVYYCARPITGNTHSKYTMDVWGQGTTVTVSS
VL: B5 VL with V46L, S53T, Y87F, T93S
modifications: peptides N-terminally acetylated and C-terminally amidated
B10: CL-512264 (antibody, V domains shown)
VH: QVQLVESGGGVVQPGRSLRLSCVTSGFTFSNFGMHWVRQAPGKGLEWVAIIWYDGSNKFYADSLKGRFTISRDNSKNTLFLQMNSLRAEDTAVYYCARAHTVTTANDKYGTDVWGQGTTVTVSS
VL: B5 VL with Q38H, V46L, Y87F, T93S
modifications: peptides N-terminally acetylated and C-terminally amidated
B11: CL-509494 (antibody, V domains shown)
VH: QVQLVESGGGVVQPGRSLRLSCAASGFTFSNFGMHWVRQSPGRGLEWVAIIWYDGSHKFYADSVKGRFTISRDNSKNTLYLQMNSLRAEDTAVYYCAKSEQRTNDHYYKYGMDVWGQGTTVTVST
VL: B5 VL with K45T, V46L, N92T, T93N
modifications: peptides N-terminally acetylated and C-terminally amidated
B12: CL-513274 (antibody, V domains shown)
VH: QVQLVESGGGVVQPGRSLRVSCAASGFTFSNYGMYWVRQAPGKGLEWVALIWHDGSNKFYEDSVKGRFTISRDNSKNTLYLQMNSLRAEDTAVYYCARAGYFQGSGSFLDYWGQGTLVTVSS
VL: B5 VL with S31T, V46L, Y87F, N92S, T93S
modifications: peptides N-terminally acetylated and C-terminally amidated
B13: CL-444424 (antibody, V domains shown)
VH: QVQLVESGGGVVQPGRSLRLSCTASGFTFSNYGMHWIRQAPGKGLEWVAIIWFDGSSQYYADSVKGRFTISRDNSKNTLYLQMNSLRAEDTAVYYCVRALYDSGSLFDFWGLGTLVTVSS
VL: B5 VL with S28N, W32L, V46L, S65N, I75V, Y87S, Q89L, T93N
modifications: peptides N-terminally acetylated and C-terminally amidated
B14: Ky15.10 (antibody, V domains shown)
VH: QVQLVESGGGVVQPGRSLRLSCAASGFTFSNSGMHWVRQVPGKGLEWVAIIWYDGSNKYYADSVKGRFSVSRDNSENTLYLQMSNLRAEDTAVYYCVRAYFDSENLYDYYGMDVWGQGTTVTVSS
VL: B5 VL with S31R, Y36F, Q38K, V46L, K50T, S53N, N92Y, T93N, I105V
modifications: peptides N-terminally acetylated and C-terminally amidated
B15: CL-512870 (antibody, V domains shown)
VH: QVQLVESGGGVVQPGRSLRLSCEASGFTFSHYGMHWVRQAPGRGLEWVAIIWYDGSNTYYRDSVKGRFTISRDNSKDTLFLQMNSLRPDDTAVYYCARALYYDSGSLFDFWGQGTLVTVSS
VL: B5 VL with V46L, S56T, S67F, T74S, Q89L, T93I
modifications: peptides N-terminally acetylated and C-terminally amidated
B16: CL-440324 (antibody, V domains shown)
VH: QVQLVESGGGVVQPGRSLRLSCAASGFTFRNHGLHWVRQAPGKGLEWVAIIWFDGSNKFYADSVKGRFTISRDNSKNTLYLQMNSLRAEDTAIYYCARVSSHDNGDYGDFDYWGQGTLVTVSS
VL: B5 VL with S28N, S31N, V46L, S77G, N92K, K102Q
modifications: peptides N-terminally acetylated and C-terminally amidated
B17: CL-510092 (antibody, V domains shown)
VH: QVQLVESGGGVVQPGTSLRLSCAASGFTFSNFGMYWVRQAPGKGLEWVALIWYDGSNKFYEDSVKGRFTISRDNSKNTLYLQMNSLRAEDTAVYYCAKDGGYSGPGKYGFFRHWGQGSLVTVSS
VL: B5 VL with M4L, S31N, V46L, S65N, Q89H, T93F
modifications: peptides N-terminally acetylated and C-terminally amidated
B18: CL-514146 (antibody, V domains shown)
VH: QVQLVESGGGVVQPGRSLRLSCAVSGFTFSNSGMHWVRQAPGKGLEWVAIIWYDGNNKFYADSVKGRFTISRDNSKNTLYLQMNSLRAEDTSIYYCARAYPSGNYGDKYGMDVWGQGTTVTVSS
VL: B5 VL with Y36F, K42N, V46L, S76N, T93S, Y94F
modifications: peptides N-terminally acetylated and C-terminally amidated
B19: CL-440422 (antibody, V domains shown)
VH: QVQLVESGGGVVQPGRSLRLSCAASGFTFSNFGMHWVRQTPDRGLEWVAIIWFDGSNTFYTDSVKGRFTISRDNYMNTLYLQMNSLRAEDTAVYYCARSFYSDSAGSLFDYWGQGTLVTVSS
VL: DIQMTQSPSTLSASVGDRVTITCRASQNINNWVAWYQQKPGKAPKLLIYKASDLETGVPSRFSGSGSGTEFTLTISGLQPDDFATFYCLQNNHYWTFGQGTKVEIK
modifications: peptides N-terminally acetylated and C-terminally amidated
B20: CL-511073 (antibody, V domains shown)
VH: QVQLVESGGGVVQPGRSLRLSCAASGFSFSSHGMHWVRQAPGKGLEWVSIIWYDGSNKFYADSVKGRFTISRDNSKNTLYLQMNSLRAEDTAVYYCARDGYDVLTGHYNWFDPWGQGTLVTVSS
VL: EIVMTQSPATLSVSPGERATLSCRASQSVSSKLAWYQQKPGQAPRLLIYGASTRATGIPARFSGSGSGTDFTLTISSLQSEDFAVYYCQQYNNWWTFGHGTKVEIK
modifications: peptides N-terminally acetylated and C-terminally amidated
B21: CL-442127 (antibody, V domains shown)
VH: QAQLVESGGGVVQPGKSLRLSCAASRFTFRNYGMHWVRQGPVKGLEWVALIWHDGSNKFYSDSVRDRFTISRDNSKNKLFLQMNSLTADDTALYYCVRSNYDGSGTYGWFGPWGQGTLVTVSS
VL: EIVLTQSPGTLSLSPGERATLSCRASQSVISNYLAWYQQKPGQAPRLLIYGASTRDIGIPDRFSGSGSGTDFTLTISRLEPEDFAVYFCHQYGSSFTFGPGTKVDFK
modifications: peptides N-terminally acetylated and C-terminally amidated
B22: CL-509025 (antibody, V domains shown)
VH: QVQLVESGGGVVQPGRSLRLSCVASGFTFSDYGMHWVRQAPGKGLEWVAVIWYDGTKEFFADSVKGRFTISRDNSKDTLYLQMNSLRAEDTGIYYCATYKWNSHLDYWGQGTLVTVSS
VL: EIVLTQSPATLSLSPGERATLSCRASQTISSYLAWYQQKPGQAPRLLIYDASNRATGIPARFSGSGSGTDFTLTISSLEPEDFTVYYCQQRSNWPLTFGGGTKVGIK
modifications: peptides N-terminally acetylated and C-terminally amidated
B23: CL-437934 (antibody, V domains shown)
VH: QVQLVASGGAVVQPGRSLRLSCAASGFTFSNSGMHWVRQAPGQGLEWVAIIWYDGGNKYYADSVKGRFTISRDNSKNTLYLQMNSLRAEDTAVYYCVRAYYEILTTYNKDCCYGMDVWGQGTTVTVSS
VL: not shown
modifications: peptides N-terminally acetylated and C-terminally amidated
B24: CL-464277 (antibody, V domains shown)
VH: QVQLVASGGGVVQPGRSLRLSCAVSGFTFRNYGMHWVRQDPGRGLEWVAIIWYDGSYKFYADSVKGRFTISRDNSKNTLYLQMNSLRAEDTAVYYCARSYGSLTGDQTKYGMDVWGQGTTVSVSS
VL: not shown
modifications: peptides N-terminally acetylated and C-terminally amidated
B25: CL-512206 (antibody, V domains shown)
VH: QVQLVESGGGVVQPGRSLRLSCAASGFTFSHYGMHWVRQAPGKGLEWVAVIWYDGNNKFYADSVKGRFTISRDNSNNTLYLQMNSLRAEDTAVYHCVRERTGATSRGFDFWGQGTLVTVSS
VL: QSVLTQPPSVSAAPGQKVTISCSGSDSNIEKYYVSWYQQLPGSAPKLLIYDNNKRPSGIPDRFSGSKSGTSATLGITGLQTGDEAVYYCGTWDSSLSTGVFGGGTKLTVL
modifications: peptides N-terminally acetylated and C-terminally amidated

Each binder was assayed against PfCSP full length (Plasmodium falciparum (isolate NF54), UniProt P19597) (assay: ELISA AUC).
Chain of PfCSP full length (P19597 20-375): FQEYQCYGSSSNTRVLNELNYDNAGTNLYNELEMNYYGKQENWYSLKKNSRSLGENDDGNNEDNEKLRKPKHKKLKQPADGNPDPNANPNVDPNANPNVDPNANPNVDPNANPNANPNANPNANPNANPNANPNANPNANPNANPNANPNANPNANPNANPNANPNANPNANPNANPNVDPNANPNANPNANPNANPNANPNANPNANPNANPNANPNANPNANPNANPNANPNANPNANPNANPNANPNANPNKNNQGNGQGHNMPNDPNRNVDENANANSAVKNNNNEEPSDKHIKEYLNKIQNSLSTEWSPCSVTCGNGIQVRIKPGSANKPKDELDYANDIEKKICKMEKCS

Question: How did the binding score turn out when B1 was run?
Answer: 2.5

Question: How did the binding score turn out when B2 was run?
Answer: 2.6

Question: How did the binding score turn out when B3 was run?
Answer: 2.09

Question: B4 was tested. Which binding score did it give?
Answer: 2.03

Question: For B5, which binding score is on record?
Answer: 2.64

Question: With B6 as the binder, how does the binding score read?
Answer: 2.19

Question: With B7 as the binder, how does the binding score read?
Answer: 2.5

Question: With B8 as the binder, how does the binding score read?
Answer: 2.48

Question: For B9, which binding score is on record?
Answer: 2.57

Question: Which binding score does the source give for B10 here?
Answer: 2.54

Question: How did the binding score turn out when B11 was run?
Answer: 1.93

Question: For B12, which binding score is on record?
Answer: 2.23

Question: With B13 as the binder, how does the binding score read?
Answer: 2.3

Question: How did the binding score turn out when B14 was run?
Answer: 2.17

Question: B15 was tested. Which binding score did it give?
Answer: 2.23

Question: B16 was tested. Which binding score did it give?
Answer: 2.6

Question: For B17, which binding score is on record?
Answer: 2.38

Question: With B18 as the binder, how does the binding score read?
Answer: 2.39

Question: How did the binding score turn out when B19 was run?
Answer: 2.5

Question: B20 was tested. Which binding score did it give?
Answer: 2.15

Question: B21 was tested. Which binding score did it give?
Answer: 2.3

Question: B22 was tested. Which binding score did it give?
Answer: 1.64

Question: For B23, which binding score is on record?
Answer: 2.4

Question: B24 was tested. Which binding score did it give?
Answer: 2.5

Question: How did the binding score turn out when B25 was run?
Answer: 1.86
